Results on 1 substance are retold here after patent publication US20230391859A1.

For assay [1], the target named is cardiac amyloid deposits (ATTR amyloid) (UniProt P02766). Description: ex vivo binding curve on cardiac tissue sections with amyloid (FIG. 5G); same value in mass units.
Assay [2] has the same target. Kind of assay: ex vivo binding curve on cardiac tissue sections with amyloid (FIG. 5G).
For assay [3] the target is unchanged. Kind of assay: ex vivo binding to cardiac amyloid in tissue sections, quantified as % of maximum.

As a reminder, the Kd is the free concentration of one partner at which half of the binding sites on the other are occupied at equilibrium, for simple one-to-one binding. Low values mean tighter binding, high ones weaker binding. As usually defined, the EC50 (read off the curve) is the concentration needed to bring the measured effect to its halfway point. The low end stands for a more potent agent, the high end for a less potent agent. For “murine precursor of PRX004 (mPRX004) (antibody)”, the Kd in assay [1] was found to be 0.26 µg/mL; in assay [2], 1.75 nM. For the same substance, in assay [3], the EC50 (read off the curve) is 0.3 µg/mL.
